In this assay the target is Bcl-2 (UniProt P10415). As to the kind of experiment: Flag-Beclin1 IP, Bcl-2 immunoblot. Particulars: reference: Flag-Beclin1 wild type; sites T119.

The results in this text go back to paper PMC3740589.

“Beclin1 (from UniProt Q14457) Flag-Beclin1 T119A”: the “binding against the reference” value is reported as “stronger”.
